According to article PMC7954794, “Protein context shapes the specificity of SH3 domain-mediated interactions in vivo” (Nature Communications, 2021):

B1: FUS1 (protein, UniProt P11710 1-512, looked up)
Nuclear fusion protein FUS1: MVATIMQTTTTVLTTVAAMSTTLASNYISSQASSSTSVTTVTTIATSIRSTPSNLLFSNVAAQPKSSSASTIGLSIGLPIGIFCFGLLILLCYFYLKRNSVSISNPPMSATIPREEEYCRRTNWFSRLFWQSKCEDQNSYSNRDIEKYNDTQWTSGDNMSSKIQYKISKPIIPQHILTPKKTVKNPYAWSGKNISLDPKVNEMEEEKVVDAFLYTKPPNIVHIESSMPSYNDLPSQKTVSSKKTALKTSEKWSYESPLSRWFLRGSTYFKDYGLSKTSLKTPTGAPQLKQMKMLSRISKGYFNESDIMPDERSPILEYNNTPLDANDSVNNLGNTTPDSQITSYRNNNIDLITARPHSVIYGTTAQQTLETNFNDHHDCNKSTEKHELIIPTPSKPLKKRKKRRQSKMYQHLQHLSRSKPLPLTPNSKYNGEASVQLGKTYTVIQDYEPRLTDEIRISLGEKVKILATHTDGWCLVEKCNTQKGSIHVSVDDKRYLNEDRGIVPGDCLQEYD
B2: CYK3 (protein, UniProt Q07533 1-885, looked up)
Cytokinesis protein 3: MATNLTSLKPPFKVKARYGWSGQTKGDLGFLEGDIMEVTRIAGSWFYGKLLRNKKCSGYFPHNFVILLEERLNSSTENGRQPSKIVESFEKSNKVVIPPVPSRYSDERPRPKKKLSSSMPNSPKKPVDSLTKARKAKSKEMVNEKNIYNTQSSRHHNNSAPNLPLASHSKPQVRNFEESMNNPLPPLPPLPDLDNMRKTDKRAPKKSYSANDLHMARSSREYNYYKDNQKFYDGFIPEKRYSLEEDSISSGLFSNSQYLNDSACSSENSFALMSDFSATSAGSFARHKYAQSFSDSLQRSQNANGCSTKINDSQEFGDSNASSRNGKMGDILRKIIIPKRNTNIYSSSVSSPKSPKAYPKLPDIQNLNLSATPDEARDWIAVKCHLNRARTLTKYDKHPRYMRALEENRDLILHPQDSIYNGLNTNEVKGNTKPGLVDVELAELNIEYIDKMTWKRCIRDGTMTLDSWAQTTFSARYSTVLEKLRGIYIFCTEMFALTDDNGTSDFSAEPQNLEKILYRKHCTPYELTWLFKKLANSLGITCEIVIGFLKTPSAINWEFKYNHCWLRILVNKEWRFIDVILGNVTNPIHEFVNNRKIKKAENSYFLMAPLEMIYTHIPPREFEQHIVPSIDQLSALYLPLVFPSFFKNELKLYKFSTALSFLEDSEIYECSLEIPNDVEVFASVVIPTDNEEASSAYRNMELALTQIKKQKAESGRRIALIKAVLPPNVNKGSLYIHSGVRGTQTSIANIHPLSMMVPLTHKGSNMKYEFVIKIPSESIQKIELYIVEPQSRYLFVGNEYSFEVIQSPSDGIVYSSDEGPNQNRKQPMAIKSPSGRVHELVKSDPHFPYGTWKGSIKIKEPGVWSALVIADSGIGWSVFAEWLCV

System: Abp1 PPIs
Assay: DHFR-PCA of Abp1 SH3-swapped baits (Fig. 2B-D, S2C, S2F);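 on Protein-protein interaction distance between Abp1 SH3-swapped baits, to ABP1: Euclidean distance between DHFR-PCA score profiles of the baits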;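 on Protein-protein interaction distance between Abp1 SH3-swapped baits, to BEM1-2: Euclidean distance between DHFR-PCA score profiles of the baits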;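 on Protein-protein interaction distance between Abp1 SH3-swapped baits, to BOI1: Euclidean distance between DHFR-PCA score profiles of the baits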;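 on Protein-protein interaction distance between Abp1 SH3-swapped baits, to BZZ1-1: Euclidean distance between DHFR-PCA score profiles of the baits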
Assay type: cell-based, Saccharomyces cerevisiae
Conditions: sheet Fig2C; for Protein-protein interaction distance between Abp1 SH3-swapped baits, to ABP1: Abp1 bait with swapped SH3, distance to bait with ABP1 SH3; for Protein-protein interaction distance between Abp1 SH3-swapped baits, to BBC1: distance to Abp1 bait with BBC1 SH3; for Protein-protein interaction distance between Abp1 SH3-swapped baits, to BEM1-1: distance to Abp1 bait with BEM1-1 SH3; for Protein-protein interaction distance between Abp1 SH3-swapped baits, to BEM1-2: distance to Abp1 bait with BEM1-2 SH3; for Protein-protein interaction distance between Abp1 SH3-swapped baits, to BOI1: distance to Abp1 bait with BOI1 SH3; for Protein-protein interaction distance between Abp1 SH3-swapped baits, to BOI2: distance to Abp1 bait with BOI2 SH3; for Protein-protein interaction distance between Abp1 SH3-swapped baits, to BUD14: distance to Abp1 bait with BUD14 SH3; for Protein-protein interaction distance between Abp1 SH3-swapped baits, to BZZ1-1: distance to Abp1 bait with BZZ1-1 SH3; for Protein-protein interaction distance between Abp1 SH3-swapped baits, to BZZ1-2: distance to Abp1 bait with BZZ1-2 SH3; for Protein-protein interaction distance between Abp1 SH3-swapped baits, to CDC25: distance to Abp1 bait with CDC25 SH3; for Protein-protein interaction distance between Abp1 SH3-swapped baits, to CTTN: distance to Abp1 bait with CTTN SH3; for Protein-protein interaction distance between Abp1 SH3-swapped baits, to CYK3: distance to Abp1 bait with CYK3 SH3; for Protein-protein interaction distance between Abp1 SH3-swapped baits, to DBNL: distance to Abp1 bait with DBNL SH3; for Protein-protein interaction distance between Abp1 SH3-swapped baits, to FUS1: distance to Abp1 bait with FUS1 SH3; for Protein-protein interaction distance between Abp1 SH3-swapped baits, to HCLS1: distance to Abp1 bait with HCLS1 SH3; for Protein-protein interaction distance between Abp1 SH3-swapped baits, to HOF1: distance to Abp1 bait with HOF1 SH3; for Protein-protein interaction distance between Abp1 SH3-swapped baits, to HSE1: distance to Abp1 bait with HSE1 SH3; for Protein-protein interaction distance between Abp1 SH3-swapped baits, to LSB1: distance to Abp1 bait with LSB1 SH3; for Protein-protein interaction distance between Abp1 SH3-swapped baits, to LSB3: distance to Abp1 bait with LSB3 SH3; for Protein-protein interaction distance between Abp1 SH3-swapped baits, to MYO3: distance to Abp1 bait with MYO3 SH3; for Protein-protein interaction distance between Abp1 SH3-swapped baits, to MYO5: distance to Abp1 bait with MYO5 SH3; for Protein-protein interaction distance between Abp1 SH3-swapped baits, to NBP2: distance to Abp1 bait with NBP2 SH3; for Protein-protein interaction distance between Abp1 SH3-swapped baits, to PEX13: distance to Abp1 bait with PEX13 SH3; for Protein-protein interaction distance between Abp1 SH3-swapped baits, to PIN3: distance to Abp1 bait with PIN3 SH3; for Protein-protein interaction distance between Abp1 SH3-swapped baits, to RVS167: distance to Abp1 bait with RVS167 SH3; for Protein-protein interaction distance between Abp1 SH3-swapped baits, to SDC25: distance to Abp1 bait with SDC25 SH3; for Protein-protein interaction distance between Abp1 SH3-swapped baits, to SHO1: distance to Abp1 bait with SHO1 SH3; for Protein-protein interaction distance between Abp1 SH3-swapped baits, to SLA1-1: distance to Abp1 bait with SLA1-1 SH3; for Protein-protein interaction distance between Abp1 SH3-swapped baits, to SLA1-2: distance to Abp1 bait with SLA1-2 SH3; for Protein-protein interaction distance between Abp1 SH3-swapped baits, to SLA1-3: distance to Abp1 bait with SLA1-3 SH3; for Protein-protein interaction distance between Abp1 SH3-swapped baits, to YSC84: distance to Abp1 bait with YSC84 SH3
Procedure, shortened: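 Interactions were scored by DHFR protein-fragment complementation. DHFR F[1,2]-tagged Abp1 strains, whose SH3 was swapped for yeast or human ortholog domains, were crossed on YPD at 30 °C for 48 h with a 1536-format array of 575 prey-DHFR F[3] strains and 40 negatives, giving four replicates per pair. PCA selection lasted 4 days after double diploid selection.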

Molecule	Protein-protein interaction distance between Abp1 SH3-swapped baits, to ABP1	Protein-protein interaction distance between Abp1 SH3-swapped baits, to BBC1	Protein-protein interaction distance between Abp1 SH3-swapped baits, to BEM1-1	Protein-protein interaction distance between Abp1 SH3-swapped baits, to BEM1-2	Protein-protein interaction distance between Abp1 SH3-swapped baits, to BOI1	Protein-protein interaction distance between Abp1 SH3-swapped baits, to BOI2	Protein-protein interaction distance between Abp1 SH3-swapped baits, to BUD14	Protein-protein interaction distance between Abp1 SH3-swapped baits, to BZZ1-1	Protein-protein interaction distance between Abp1 SH3-swapped baits, to BZZ1-2	Protein-protein interaction distance between Abp1 SH3-swapped baits, to CDC25	Protein-protein interaction distance between Abp1 SH3-swapped baits, to CTTN	Protein-protein interaction distance between Abp1 SH3-swapped baits, to CYK3	Protein-protein interaction distance between Abp1 SH3-swapped baits, to DBNL	Protein-protein interaction distance between Abp1 SH3-swapped baits, to FUS1	Protein-protein interaction distance between Abp1 SH3-swapped baits, to HCLS1	Protein-protein interaction distance between Abp1 SH3-swapped baits, to HOF1	Protein-protein interaction distance between Abp1 SH3-swapped baits, to HSE1	Protein-protein interaction distance between Abp1 SH3-swapped baits, to LSB1	Protein-protein interaction distance between Abp1 SH3-swapped baits, to LSB3	Protein-protein interaction distance between Abp1 SH3-swapped baits, to MYO3	other results
B1	18.44	16.64	8.021	22.67	12.53	10.5	7.121	17.24	12.64	14.2	13.46	14.91	16.42	0.00	20.02	21.29	16.23	23.45	23.48	21.97	Protein-protein interaction distance between Abp1 SH3-swapped baits, to MYO5: 21.47; Protein-protein interaction distance between Abp1 SH3-swapped baits, to NBP2: 8.037; Protein-protein interaction distance between Abp1 SH3-swapped baits, to PEX13: 21.37; Protein-protein interaction distance between Abp1 SH3-swapped baits, to PIN3: 21.08; Protein-protein interaction distance between Abp1 SH3-swapped baits, to RVS167: 19.5; Protein-protein interaction distance between Abp1 SH3-swapped baits, to SDC25: 24.28; Protein-protein interaction distance between Abp1 SH3-swapped baits, to SHO1: 16.07; Protein-protein interaction distance between Abp1 SH3-swapped baits, to SLA1-1: 17.65; Protein-protein interaction distance between Abp1 SH3-swapped baits, to SLA1-2: 8.845; Protein-protein interaction distance between Abp1 SH3-swapped baits, to SLA1-3: 23.5; Protein-protein interaction distance between Abp1 SH3-swapped baits, to YSC84: 23.88
B2	26.78	25.11	17.6	11.87	21.68	20.06	16.1	26.08	22.45	5.497	21.37	0.00	25.11	14.91	28.59	10.8	25.16	31.53	31.13	30.11	Protein-protein interaction distance between Abp1 SH3-swapped baits, to MYO5: 29.49; Protein-protein interaction distance between Abp1 SH3-swapped baits, to NBP2: 15.74; Protein-protein interaction distance between Abp1 SH3-swapped baits, to PEX13: 29.86; Protein-protein interaction distance between Abp1 SH3-swapped baits, to PIN3: 28.76; Protein-protein interaction distance between Abp1 SH3-swapped baits, to RVS167: 28.09; Protein-protein interaction distance between Abp1 SH3-swapped baits, to SDC25: 15.21; Protein-protein interaction distance between Abp1 SH3-swapped baits, to SHO1: 24.75; Protein-protein interaction distance between Abp1 SH3-swapped baits, to SLA1-1: 5.436; Protein-protein interaction distance between Abp1 SH3-swapped baits, to SLA1-2: 14.43; Protein-protein interaction distance between Abp1 SH3-swapped baits, to SLA1-3: 31.65; Protein-protein interaction distance between Abp1 SH3-swapped baits, to YSC84: 31.42
